Reference: paper PMC8546688, “Streptococcus suis MsmK: Novel Cell Division Protein Interacting with FtsZ and Maintaining Cell Shape” (mSphere, 2021)

B3: His-tagged FtsZ (filamentous temperature-sensitive protein Z) (natural protein, Streptococcus suis, UniProt A0A0H3MXZ7 1-409, looked up)
chain: MAFSFEAAASHGAVIKVIGVGGGGGNAINRMIEEGVAGVEFIAANTDVQALSSSKAETVIQLGPKLTRGLGAGGQPEVGRKAAEESEEALTNVLTGADMVFITAGMGGGSGTGAAPVIARIAKNLGALTVAVVTRPFGFEGNKRGNFAIEGIEGLREQVDTLLIISNNNLLEIVDKKTPLLEALSEADNVLRQGVQGITDLITNPGLINLDFADVKTVMENKGNALMGIGIGTGEDRVIEAARKAIYSPLLETTIDGAEDVIVNVTGGYDMTLTEAEDASEIVNQAAGQGVNIWLGTSIDETMKDEIRVTVVATGVRQDTADKPARHRTEAVSPRPSHRFDHSVASAPTRGAAQQTEAPKASAFGEWDLRRENLIRPTDTEPTSTVSVEKFTMDQDEDELDTPPFFRNR
notes: FtsZ, tubulin-like cell division protein of Streptococcus suis; The His tag is named for the SPR; also called His-FtsZ; source: purified

Key:
[1] = molecular target: B3; assay: SPR; His-tagged FtsZ immobilized onto sensor chips as the ligand; MsmK constructs in concentration series as analytes; buffer without protein as negative control; conditions: both partners purified
[2] = molecular target: the molecule itself; assay: transmission electron microscopy; FtsZ (0.6 μM) incubated with 2 mM GTP and/or 1 mM ATP in buffer P, 10 min at 37°C

B1: His-tagged MsmK (multiple sugar metabolism protein K), full length (enzyme, Streptococcus suis, UniProt A0A0H3N1P0 1-376, looked up)
chain: MVQLNLKNIYKKYPNSEHYSVEDFNLDIKDKEFIVFVGPSGCGKSTTLRMIAGLEDITEGEAYIDGVLMNDVAPKDRDIAMVFQNYALYPHMTVFDNMAFGLKLRKYSKDEIKKRVEEAAQILGLTEFLERKPADLSGGQRQRVAMGRAIVRDAKVFLMDEPLSNLDAKLRVSMRTEIAKIHRRIGATTIYVTHDQTEAMTLADRIVIMSATKNPAGTGTIGRIEQIGSPEELYNRPVNKFVASFIGSPAMNFFTVTLQDGVLVGDGFKVELPEGRRKHLEEKGYNGKSFTLGIRPEDIKASQLELDTYPSSIVEAEVVVSELLGAETMLYSKVGSTEFVSRVDARDYHNPGDKVRLTFNLNKAHFFDDETSKAIV
notes: MsmK, ATPase of the ABC-type carbohydrate transport system of Streptococcus suis; 378 amino acid residues, open reading frame of 1,137 bp; also called full-length MsmK; source: expressed and purified
B1 was tested, and the Kd [1] was at most 10 nM, the koff [1] was at most 1e-05 s⁻¹ and the kon [1] was 1000 M⁻¹ s⁻¹.

B2: N_MsmK (amino acids 1 to 234), His-tagged (domain or fragment, Streptococcus suis, UniProt A0A0H3N1P0 1-234, looked up)
chain: MVQLNLKNIYKKYPNSEHYSVEDFNLDIKDKEFIVFVGPSGCGKSTTLRMIAGLEDITEGEAYIDGVLMNDVAPKDRDIAMVFQNYALYPHMTVFDNMAFGLKLRKYSKDEIKKRVEEAAQILGLTEFLERKPADLSGGQRQRVAMGRAIVRDAKVFLMDEPLSNLDAKLRVSMRTEIAKIHRRIGATTIYVTHDQTEAMTLADRIVIMSATKNPAGTGTIGRIEQIGSPEELY
notes: MsmK of Streptococcus suis, N-terminal domain, aa 1 to 234 of 378; also called N terminus of MsmK; N-terminal domain of MsmK; source: expressed and purified
Binder B2 has a Kd [1] of 332 nM, a koff [1] of 0.000332 s⁻¹ and a kon [1] of 1000 M⁻¹ s⁻¹.

B3: binds [2].
